Results: patent US20250376539A1 (KIRA PHARMACEUTICALS SUZHOU, published 2025)
Residue numbers refer to the chain shown, from its start.

T1: recombinant human complement C2 (NP_000054.2), C-terminal 6His-tag, made in house (CHO cell expression) (human, UniProt P06681 21-752)
T1 construct: a linker before the tag is not described; also called human C2; Human C2
T1 sequence: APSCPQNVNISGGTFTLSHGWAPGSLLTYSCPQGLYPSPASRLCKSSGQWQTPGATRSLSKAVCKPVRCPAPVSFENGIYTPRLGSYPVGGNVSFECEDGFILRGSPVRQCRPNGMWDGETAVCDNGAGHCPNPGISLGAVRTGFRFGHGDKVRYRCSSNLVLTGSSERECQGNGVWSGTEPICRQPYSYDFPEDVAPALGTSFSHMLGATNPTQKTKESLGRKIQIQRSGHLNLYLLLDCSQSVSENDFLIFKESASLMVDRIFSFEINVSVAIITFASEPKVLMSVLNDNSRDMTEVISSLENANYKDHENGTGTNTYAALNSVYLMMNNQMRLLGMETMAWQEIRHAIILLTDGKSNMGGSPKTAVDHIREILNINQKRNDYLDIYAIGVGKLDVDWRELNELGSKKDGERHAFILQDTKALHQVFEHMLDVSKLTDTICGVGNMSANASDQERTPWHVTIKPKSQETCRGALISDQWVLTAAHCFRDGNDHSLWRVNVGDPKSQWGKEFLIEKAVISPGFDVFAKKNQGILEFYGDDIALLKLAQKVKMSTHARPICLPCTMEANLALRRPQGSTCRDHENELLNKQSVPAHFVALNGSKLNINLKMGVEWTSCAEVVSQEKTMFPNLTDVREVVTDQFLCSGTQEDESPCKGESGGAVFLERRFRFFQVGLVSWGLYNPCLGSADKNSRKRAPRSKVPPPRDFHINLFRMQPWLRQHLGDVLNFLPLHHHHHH

T2: recombinant cyno C2a, C-terminal 6His-tag, made in house (CHO cell expression) (cynomolgus monkey, UniProt P06681 244-752 (human entry))
T2 chain: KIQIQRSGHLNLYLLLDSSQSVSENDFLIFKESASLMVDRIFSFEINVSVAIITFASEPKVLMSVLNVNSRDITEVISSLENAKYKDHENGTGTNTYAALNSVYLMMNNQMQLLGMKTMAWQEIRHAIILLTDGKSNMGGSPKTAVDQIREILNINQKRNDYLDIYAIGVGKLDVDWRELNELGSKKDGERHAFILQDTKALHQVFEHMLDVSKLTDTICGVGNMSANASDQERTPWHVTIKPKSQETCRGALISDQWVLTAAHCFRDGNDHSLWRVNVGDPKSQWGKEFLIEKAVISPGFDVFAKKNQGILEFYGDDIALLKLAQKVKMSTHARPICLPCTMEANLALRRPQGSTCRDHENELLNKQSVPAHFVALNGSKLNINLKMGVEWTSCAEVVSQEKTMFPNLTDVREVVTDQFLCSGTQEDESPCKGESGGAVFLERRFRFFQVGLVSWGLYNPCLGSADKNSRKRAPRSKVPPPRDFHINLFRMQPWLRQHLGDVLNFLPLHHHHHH

T3: recombinant human C2a, C-terminal 6His-tag, made in house (CHO cell expression) (human, UniProt P06681 244-752)
T3 sequence: T2 chain with S18C, V68D, I73M, K84N, Q112R, K117E, Q148H

B1: anti-C2 antibody 3.2 (antibody, IgG4, V domains shown)
VH: EVQLLESGGGLVQPGGSLRLSCAASGFTFRHYAMSWVRQAPGKGLEWVSLISGSGASTFYADSVKGRFTISRDNSENMLYLQMNSLRAEDTAVYYCAKDSLAVAGSEYFQHWGQGTLVTVSS
VL: SYVLTQAPSVSVAPGQTARITCGGNYFGGKSVHWYQQRPGQAPVLVVYDDSDRPSGIPERFSGSKSGNTATLAISRVEAGDEAAYYCQVYDTSSDHWVFGGGTKLTVL
notes: Recombinant; also called WT; "WT" 3.2
B2: anti-C2 antibody 69.44 (antibody, IgG4, V domains shown)
VH: QVQLVQSGAEVKKPGASVKVSCKASGYSFTTYYMYWVRQAPGQGLEWMGIITPSGGSTTYAQKFQDRVTMTRDASTTTVYMELSSLRSEDTAVYYCARGYEGSYGFDHWGQGTLVTVSS
VL: SYELTQPPSVSLSPGQTASITCSGDKLGNKYTCWYQQKPGQSPVLVIYQDNKRPSGIPERFSGSNSGNTATLTISGTQAMDEADYYCQTWDSSTAVFGGGTKLTVL
notes: Recombinant

Legend:
[1] = molecular target: T1, recombinant human complement C2 …; experiment: BLI (Gator); ratio of dissociation at pH 5.8 to pH 7.4
Procedure: (§1) The histidine mutant constructs in Table 4 were tested for their pH-dependent dissociation from human C2. Probe-immobilized anti-C2 antibodies were incubated with C2 at pH 7.4 for 600s, followed by a 600s dissociation period in K Buffer at pH 7.4 or pH 5.8. The data were processed and analyzed by the Gator evaluation software.

[2] = molecular target: T2, recombinant cyno C2a, C-terminal …; experiment: ELISA on cyno C2a, OD450nm against log Ab conc. (nmol/L)
[3] = molecular target: T1, recombinant human complement C2 …; experiment: BLI (Gator), antibody on probe; 600 s association at pH 7.4, 600 s dissociation at pH 5.8
Procedure: as §1

[4] = molecular target: T1, recombinant human complement C2 …; experiment: BLI (Gator), antibody on probe; 600 s association at pH 7.4, 600 s dissociation at pH 7.4
Procedure: as §1

[5] = molecular target: T3, recombinant human C2a, C-terminal …; experiment: ELISA
[6] = molecular target: T2, recombinant cyno C2a, C-terminal …; experiment: ELISA
[7] = molecular target: T3, recombinant human C2a, C-terminal …; experiment: binding kinetics (BLI presumed)
[8] = molecular target: T2, recombinant cyno C2a, C-terminal …; experiment: binding kinetics (BLI presumed)

| Binder | Fold dissociation pH 5.8/pH 7.4 [1] | binding result [2] | Dissociation (%) pH 5.8 [3] | Dissociation (%) pH 7.4 [4] | EC50 [5] | EC50 [6] | Kd [7] | koff [7] | kon [7] | Kd [8] | koff [8] | kon [8] |
| --- | --- | --- | --- | --- | --- | --- | --- | --- | --- | --- | --- | --- |
| B1 | 2.3 fold | no binding (tested: 100 nmol/L) | 8.2% | 3.59% | – | – | – | – | – | – | – | – |
| B2 | – | – | – | – | 0.117 nM | 0.119 nM | 0.347 nM | 6.68e-05 s⁻¹ | 193000 M⁻¹ s⁻¹ | 0.376 nM | 8.79e-05 s⁻¹ | 234000 M⁻¹ s⁻¹ |
